Measured values taken from publication PMC9512702.
Changes are numbered by the printed parent chain. Values joined by “and” are separate entries in the source; they are usually repeats but may differ in a detail not shown here. Equal entries are not always repeated.

B1: SIH-11 (designed binder)
chain: DKEWILQKIYEIMRLLDELADAEASMRVSDLIYEFMKK
modifications: not checked
B2: SIH-7 (designed binder)
chain: B1 chain with Y10F
modifications: not checked
B3: SIH-13 (designed binder)
chain: B1 chain with Y10F
modifications: not checked

Experiments:
SIH-11 = assay: AUC
[1] = biological target: mammalian expressed RBD (mRBD) of SARS-CoV-2 spike (SARS-CoV-2), P0DTC2; assay: SPR
SIH-7 = assay: AUC
SIH-13 = assay: AUC

Row | Binder | stoichiometry N (SIH-11) | Kd [1] | stoichiometry N (SIH-7) | stoichiometry N (SIH-13)
1 | B1 | 3.2 | 1.3 nM |  | 
2 | B2 |  | 2.9 nM | 4.1 and 7.9 | 
3 | B3 |  | 1.6 nM |  | 9.5 and 17.7
